1 substance from PMC10675845 can be followed below.

Experiment in all cases: single-cell, single-molecule pull-down
Test [1] concerns the target GFP::CDC-42(S71E) (C. elegans) (UniProt Q05062).
Test [2] has as its target GFP::CDC-42(S71A) (C. elegans) (UniProt Q05062).
Another test concerns the target GFP::CDC-42 (C. elegans) (UniProt Q05062).

As a reminder, the koff is a measure of how fast the partners let go of each other. Higher therefore signals fast dissociation.

For “HaloTag::aPKC (from UniProt Q19266 1-597) (enzyme)”, the koff came out at 0.099 s⁻¹ in test [1], 0.057 s⁻¹ in test [2] and 0.057 s⁻¹ with GFP::CDC-42 (C. elegans).
